What was measured:
[1] = molecular target: T1, human TIGIT on HEK-Blue reporter cells (human, UniProt Q495A1 22-244); assay: cell-based or functional assay
T1 sequence (looked up): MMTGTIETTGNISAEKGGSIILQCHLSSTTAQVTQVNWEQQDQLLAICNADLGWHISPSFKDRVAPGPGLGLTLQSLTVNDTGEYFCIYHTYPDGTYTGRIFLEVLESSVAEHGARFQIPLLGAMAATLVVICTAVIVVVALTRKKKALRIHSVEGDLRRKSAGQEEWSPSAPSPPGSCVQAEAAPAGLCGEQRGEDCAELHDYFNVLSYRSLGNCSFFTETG

[2] = molecular target: T2, human IL-2 receptor (IL-2Rα, IL-2Rβ, IL-2Rγ) (human, UniProt P01589 22-272; P14784 27-551; P31785 23-369); assay: cell-based or functional assay
T2 sequence (looked up) 1: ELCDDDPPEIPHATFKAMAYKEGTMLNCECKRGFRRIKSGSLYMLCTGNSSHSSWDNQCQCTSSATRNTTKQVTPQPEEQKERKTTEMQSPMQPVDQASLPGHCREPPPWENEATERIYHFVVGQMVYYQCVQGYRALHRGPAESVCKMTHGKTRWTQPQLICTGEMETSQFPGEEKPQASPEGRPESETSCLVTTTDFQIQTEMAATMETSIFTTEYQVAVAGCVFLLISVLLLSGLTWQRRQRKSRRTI
T2 sequence (looked up) 2: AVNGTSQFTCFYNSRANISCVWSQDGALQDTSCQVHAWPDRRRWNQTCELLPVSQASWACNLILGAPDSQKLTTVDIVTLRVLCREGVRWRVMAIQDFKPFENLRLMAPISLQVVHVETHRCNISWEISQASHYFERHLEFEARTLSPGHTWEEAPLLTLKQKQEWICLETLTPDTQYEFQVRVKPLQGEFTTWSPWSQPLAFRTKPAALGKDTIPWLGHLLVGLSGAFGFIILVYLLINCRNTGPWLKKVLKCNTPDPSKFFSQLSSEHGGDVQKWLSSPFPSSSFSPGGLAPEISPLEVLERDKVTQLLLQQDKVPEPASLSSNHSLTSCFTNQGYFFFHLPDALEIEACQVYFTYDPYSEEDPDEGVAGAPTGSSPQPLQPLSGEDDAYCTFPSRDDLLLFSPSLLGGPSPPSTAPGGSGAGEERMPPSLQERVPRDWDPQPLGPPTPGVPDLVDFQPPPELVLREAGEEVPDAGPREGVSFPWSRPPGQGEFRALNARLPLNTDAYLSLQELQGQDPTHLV
T2 sequence (looked up) 3: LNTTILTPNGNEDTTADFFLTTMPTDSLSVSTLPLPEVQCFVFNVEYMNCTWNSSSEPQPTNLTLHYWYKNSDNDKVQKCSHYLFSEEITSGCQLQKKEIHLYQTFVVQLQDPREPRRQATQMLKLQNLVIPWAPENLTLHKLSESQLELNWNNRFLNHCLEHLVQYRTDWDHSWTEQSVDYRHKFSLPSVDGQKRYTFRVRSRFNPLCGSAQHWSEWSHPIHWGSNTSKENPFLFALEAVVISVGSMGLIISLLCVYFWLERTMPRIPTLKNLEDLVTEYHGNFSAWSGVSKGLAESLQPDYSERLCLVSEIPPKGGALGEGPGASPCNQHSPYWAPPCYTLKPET

IL-2 signal transduction, HEK-IL-2-TIGIT [1]: < 0.1%
IL-2 signal transduction, HEK-IL-2 [2]: < 0.1%
B1: IL-2(L18R/Q22E/R38D/K43E/E61R/Q126T/S130R)/CD155-Fc (Fc fusion)
chain 1: WPPPGTGDVVVQAPTQVPGFLGDSVTLPCYLQVPNMEVTHVSQLTWARHGESGSMAVFHQTQGPSYSESKRLEFVAARLGAELRNASLRMFGLRVEDEGNYTCLFVTFPQGSRSVDIWLRVLAKPQNTAEVQKVQLTGEPVPMARCVSTGGRPPAQITWHSDLGGMPNTSQVPGFLSGTVTVTSLWILVPSSQVDGKNVTCKVEHESFEKPQLLTVNLTVYYPPEVSISGYDNNWYLGQNEATLTCDARSNPEPTGYNWSTTMGPLPPFAVAQGAQLLIRPVDKPINTTLICNVTNALGARQAELTVQVKEGPPSEHSGISRNGGGGSGGGDKTHTCPPCPAPEDEGGPSVFLFPPKPKDTLMISRTPEVTCVVVDVSHEDPEVKFNWYVDGVEVHNAKTKPREEQYNSTYRVVSVLTVLHQDWLNGKEYKCKVSNKALPAPIEKTISKAKGQPREPQVYVYPPSREEMTKNQVSLTCLVKGFYPSDIAVEWESNGQPENNYKTTPPVLDEDGSFALVSKLTVDKSRWQQGNVFSCSVMHEALHNHYTQKSLSLSPGK
chain 2: WPPPGTGDVVVQAPTQVPGFLGDSVTLPCYLQVPNMEVTHVSQLTWARHGESGSMAVFHQTQGPSYSESKRLEFVAARLGAELRNASLRMFGLRVEDEGNYTCLFVTFPQGSRSVDIWLRVLAKPQNTAEVQKVQLTGEPVPMARCVSTGGRPPAQITWHSDLGGMPNTSQVPGFLSGTVTVTSLWILVPSSQVDGKNVTCKVEHESFEKPQLLTVNLTVYYPPEVSISGYDNNWYLGQNEATLTCDARSNPEPTGYNWSTTMGPLPPFAVAQGAQLLIRPVDKPINTTLICNVTNALGARQAELTVQVKEGPPSEHSGISRNGGGSGAPTSSSTKKTQLQLEHLRLDLEMILNGINNYKNPKLTDMLTFEFYMPKKATELKHLQCLERELKPLEEVLNLAQSKNFHLRPRDLISNINVIVLELKGSETTFMCEYADETATIVEFLNRWITFCTSIIRTLTGGGGSGGGDKTHTCPPCPAPEKKGGPSVFLFPPKPKDTLMISRTPEVTCVVVDVSHEDPEVKFNWYVDGVEVHNAKTKPREEQYNSTYRVVSVLTVLHQDWLNGKEYKCKVSNKALPAPIEKTISKAKGQPREPQVYVLPPSREEMTKNQVSLLCLVKGFYPSDIAVEWESNGQPENRYMTWPPVLDSDGSFFLYSKLTVDKSRWQQGNVFSCSVMHEALHNHYTQKSLSLSPGK
